pKd: −log10 of the molar value.

One assay concerns the target b-His6-BAK_(16-186) (UniProt Q16611).
Sequence of UniProt Q16611 (Q16611 16-186): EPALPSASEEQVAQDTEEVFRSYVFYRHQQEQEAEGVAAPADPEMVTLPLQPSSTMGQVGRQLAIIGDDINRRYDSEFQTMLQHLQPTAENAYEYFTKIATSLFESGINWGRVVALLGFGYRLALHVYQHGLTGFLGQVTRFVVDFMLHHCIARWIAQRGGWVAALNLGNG
Assay: not given
As to BNIP5 BH3 peptide, 5-FAM labelled, the pKd (commonly the negative decadic logarithm of the Kd, by convention in mol/L) is 6.37.

The next assay has the same target. Briefly: BLI. In general terms: In BLI a coated tip is dipped into the sample, and binding shifts an interference pattern.
As to His6-SUMO-BNIP5 BH3 (peptide), the koff (usually the rate constant with which the complex falls apart) worked out at 0.16 s⁻¹.

The next assay has the same target. Briefly: fluorescence polarisation. Background: In fluorescence polarisation assays a small probe gives low polarisation when free and higher when bound to something large.
For the substance NBEAL2 BH3 peptide, 5-FAM labelled, the pKd is less than 4.70.

Take SPNS1 BH3 peptide, 5-FAM labelled: the pKd was less than 4.70.

SLC19A1 BH3 peptide, 5-FAM labelled had a pKd of less than 4.70.

TERT BH3 peptide, 5-FAM labelled: the pKd is less than 4.70.

With TRIM58 BH3 peptide, 5-FAM labelled, the pKd is less than 4.70.

As for PXT1 BH3 peptide, 5-FAM labelled, the pKd was 4.96.

Regarding BNIP5 BH3 peptide, 5-FAM labelled, the pKd was 6.40. Compared with the last substance, the pKd is 1.44 log units higher.

The substance CASP3 BH3 peptide, 5-FAM labelled gave a negative logarithm of the Kd (pKd) of less than 4.70.

With TRPM7 BH3 peptide, 5-FAM labelled, the pKd was less than 4.70.

For the origin of these results see publication doi:10.1101/2022.05.07.491048.
